Data from US20140056903A1 (Regeneron, published 2014).

Legend:
[1] = target: T1, irrelevant human Fc tagged protein; assay: BLI Octet, antigen on anti-hFc tips, 100 ug/mL Ab
T1 construct: negative control antigen; also called Irrelevant hFc tagged protein
Experimental: (§1) The ability of anti-GFRα3 antibodies to bind to GDNF-family receptors was assessed using an Octet Red biosensor (Fortebio, Inc.). Antibodies were tested for binding to either human GFRα1 expressed with a C-terminal human Fc tag and a hexahistidine tag (hGFRα1-hFc-6His, R&D Systems #714-GR), human GFRα1 expressed with only a C-terminal human Fc tag (hGFRα1-hFc; SEQ ID: 376), human GFRα2 expressed with a C-terminal human Fc tag and a hexahistidine tag (hGFRα2-hFc-6His, R&D Systems #613-FR), human GFRα3 expressed with a C-terminal human Fc tag (hGFRα3-hFc, SEQ ID:371), or an irrelevant human Fc tagged protein. Antigens were captured onto anti-human Fc sensor tips from 10 ug/mL solutions for 5 minutes. The coated sensor tips were then blocked with a 100 ug/mL solution of irrelevant human Fc antibodies for 5 minutes. Blocked sensor tips were then submerged into wells containing […] of each anti-GFRα3 antibody or buffer alone for 10 minutes. The experiment was performed at 25° C. with a flow rate of 1000 rpm using HBST+BSA buffer (10 mM HEPES, 150 mM NaCl, 3 mM EDTA, 0.05% w/v Surfactant P20, 0.1 mg/mL BSA, pH 7.4). The binding response (measured in units of nm) at each step of the experiment was monitored and recorded.

[2] = target: T2, human GFRα1 expressed with a C-terminal human Fc tag and a hexahistidine tag (human, UniProt P56159 25-429, limits assumed); assay: BLI Octet, antigen on anti-hFc tips, 100 ug/mL Ab
T2 construct: bought protein; also called hGFRα1-hFc-6His; hGFRα1-hFc-6his
T2 sequence (looked up): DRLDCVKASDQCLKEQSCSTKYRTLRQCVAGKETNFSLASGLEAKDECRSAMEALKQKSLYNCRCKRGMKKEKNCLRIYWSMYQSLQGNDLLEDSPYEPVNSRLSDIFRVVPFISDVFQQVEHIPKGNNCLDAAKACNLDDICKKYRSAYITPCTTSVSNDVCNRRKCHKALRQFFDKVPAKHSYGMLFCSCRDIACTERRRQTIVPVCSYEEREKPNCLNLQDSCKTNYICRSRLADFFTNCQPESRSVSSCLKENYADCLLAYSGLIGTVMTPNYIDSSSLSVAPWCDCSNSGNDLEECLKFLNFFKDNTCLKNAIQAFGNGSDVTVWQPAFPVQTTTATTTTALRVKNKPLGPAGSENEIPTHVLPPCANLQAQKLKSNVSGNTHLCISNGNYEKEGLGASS
Experimental: as §1

[3] = target: T3, human GFRα2 expressed with a C-terminal human Fc tag and a hexahistidine tag (human, UniProt O00451 22-441, limits assumed); assay: BLI Octet, antigen on anti-hFc tips, 100 ug/mL Ab
T3 construct: bought protein; also called hGFRα2-hFc-6His; hGFRα2-hFc-6his
T3 sequence (looked up): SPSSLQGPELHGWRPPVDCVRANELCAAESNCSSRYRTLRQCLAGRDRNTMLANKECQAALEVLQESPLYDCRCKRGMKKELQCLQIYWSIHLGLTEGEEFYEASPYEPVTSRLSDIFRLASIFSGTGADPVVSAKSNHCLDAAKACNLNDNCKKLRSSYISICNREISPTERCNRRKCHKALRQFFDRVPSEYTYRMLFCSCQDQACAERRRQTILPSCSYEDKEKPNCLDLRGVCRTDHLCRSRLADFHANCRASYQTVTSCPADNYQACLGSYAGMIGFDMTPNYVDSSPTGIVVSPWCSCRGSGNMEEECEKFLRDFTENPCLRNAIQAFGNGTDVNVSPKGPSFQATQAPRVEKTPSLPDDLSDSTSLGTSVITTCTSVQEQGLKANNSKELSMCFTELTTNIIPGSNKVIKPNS
Experimental: as §1

[4] = target: T4, human GFRα1 expressed with only a C-terminal human Fc tag (human); assay: BLI Octet, antigen on anti-hFc tips, 100 ug/mL Ab
T4 construct: also called hGFRα1-hFc
Experimental: as §1
Target sequence in this assay (chain, as listed by the source limits assumed): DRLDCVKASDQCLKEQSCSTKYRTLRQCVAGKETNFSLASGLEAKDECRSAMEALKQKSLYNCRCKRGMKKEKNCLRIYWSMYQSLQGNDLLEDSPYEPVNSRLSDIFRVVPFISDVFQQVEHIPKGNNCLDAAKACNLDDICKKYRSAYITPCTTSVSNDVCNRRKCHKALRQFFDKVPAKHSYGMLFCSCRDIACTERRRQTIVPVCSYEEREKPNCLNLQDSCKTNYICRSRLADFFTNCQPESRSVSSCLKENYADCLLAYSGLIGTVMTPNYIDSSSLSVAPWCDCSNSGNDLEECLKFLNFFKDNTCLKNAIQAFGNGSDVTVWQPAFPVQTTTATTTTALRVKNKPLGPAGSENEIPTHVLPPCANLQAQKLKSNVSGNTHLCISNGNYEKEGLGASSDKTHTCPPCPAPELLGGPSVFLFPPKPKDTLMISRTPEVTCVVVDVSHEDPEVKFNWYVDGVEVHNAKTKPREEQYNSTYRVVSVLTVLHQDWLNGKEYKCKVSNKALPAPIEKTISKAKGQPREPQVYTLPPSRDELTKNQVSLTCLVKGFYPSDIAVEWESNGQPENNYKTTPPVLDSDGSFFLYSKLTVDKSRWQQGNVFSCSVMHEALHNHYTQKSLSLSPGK

[5] = target: T5, human GFRα3 expressed with a C-terminal hFc tag (human); assay: BLI Octet, antigen on anti-hFc tips, 100 ug/mL Ab
T5 construct: also called hGFRα3-hFc
T5 sequence (chain, as listed by the source limits assumed): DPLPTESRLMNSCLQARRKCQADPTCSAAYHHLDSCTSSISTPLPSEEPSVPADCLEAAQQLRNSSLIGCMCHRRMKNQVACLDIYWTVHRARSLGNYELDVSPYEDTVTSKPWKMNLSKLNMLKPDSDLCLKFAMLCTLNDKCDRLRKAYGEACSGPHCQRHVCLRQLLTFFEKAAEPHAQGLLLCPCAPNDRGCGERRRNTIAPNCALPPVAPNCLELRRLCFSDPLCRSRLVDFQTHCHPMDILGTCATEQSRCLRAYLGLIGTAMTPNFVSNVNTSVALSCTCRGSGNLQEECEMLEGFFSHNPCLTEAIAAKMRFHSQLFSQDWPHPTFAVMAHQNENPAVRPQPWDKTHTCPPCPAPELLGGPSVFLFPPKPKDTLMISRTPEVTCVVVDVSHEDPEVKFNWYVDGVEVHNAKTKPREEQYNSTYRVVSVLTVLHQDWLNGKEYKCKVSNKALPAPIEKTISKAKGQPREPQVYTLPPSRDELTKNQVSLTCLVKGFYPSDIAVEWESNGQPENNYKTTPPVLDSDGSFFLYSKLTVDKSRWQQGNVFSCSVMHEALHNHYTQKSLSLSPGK
Experimental: as §1

[6] = target: T5, human GFRα3 expressed with a C-terminal …; assay: blocking ELISA 1, hGFRα3-hFc to coated hARTEMIN-mmH
Experimental: A constant amount of human GFRα3 fused with a C-terminal human Fc tag (hGFRα3-hFc; SEQ ID:371) at 120 pM was pre-mixed with varying amounts of antibodies, ranging from 0 to ˜10 nM in serial dilutions, followed by an 1 hour incubation at room temperature (RT) to allow antibody-hGFRα3-hFc binding to reach equilibrium. The equilibrated sample solutions were then transferred to the hARTEMIN-mmH-coated plate. […] Absorbance was recorded at 450 nm on a Victor X5 plate reader (Perkin Elmer) to determine the amount of free hGFRα3-hFc in the pre-equilibrated hGFRα3-hFc-antibody solutions that was able to bind to the plate coated with hARTEMIN-mmH. IC₅₀ values, defined as the concentration of antibody required to reduce the signal from a constant concentration of hGFRα3-hFc by 50%, were calculated from the data using Prism software from GraphPad. The absorbance measured at the constant amount of 120 pM hGFRα3-hFc in the absence of anti-GFRα3 antibody is defined as 0% blocking and the absorbance with no added hGFRα3-hFc is defined as 100% blocking. The observed absorbance in the wells containing the highest antibody concentration was used to calculate the maximum blocking percent shown in the table.

[7] = target: T3, human GFRα2 expressed with a C-terminal …; assay: BLI Octet, antigen captured on anti-hFc tips
Experimental: as §1

[8] = target: T4, human GFRα1 expressed with only a …; assay: BLI Octet, antigen captured on anti-hFc tips
Experimental: as §1

B1: H4H2352S (antibody, human IgG4, V domains shown)
VH: EVQLVQSGAEVKKPGASVKVSCKASGYTFTNYGITWVRQAPGQGLEWMGWISAYNGNTGYAQKFQGRVTMTTDTSTSTAYMELRSLRSDDTAVYYCAREDYDFWRAFDIWGQGTMVTVSS
VL: EIVLTQSPGTLSLSPGERATLSCRASQSVSSTYLAWLQQKPGQAPRLLIYGASSRATGIPDRFSGSGSGTDFTLTINRLEPEDFAVYYCQQYAYSPYTFGQGTKLEIK
notes: human IgG4 Fc (H4H); also called H4H2352S-1
- Bound (nm) [1]: 0.03 nm
- Bound (nm) [2]: 0.03 nm
- Bound (nm) [3]: 0.04 nm
- Bound (nm) [4]: 0.02 nm
- Bound (nm) [5]: 1.25 nm
- % max blocking [6]: 51%
- IC50 [6]: 0.0658 nM
- binding result [7]: no binding (tested: 100 ug/mL)
- binding result [8]: no binding (tested: 100 ug/mL)
